The record followed here is article PMC6066219 (PLoS ONE, 2018).

Marks after values point to notes of the source that are not given here. Starred links: 1 amine or outer side, 2 acyl side, 3 side chain; linkers in the order of their positions; H or OH if unused. Positions of bridges follow the written chain, without caps; N, C: chain ends. Non-standard residues stand in square brackets, D forms with d. Residues, ends and D or L forms follow the SMILES beside them. Chains are numbered I, II in the order given. *: point of attachment. X1 = CC1=CC(=O)N(O)CCCC(NC(=O)CCN2C(=O)CC([*:3])C2=O)C(=O)OCCC(C)=CC(=O)N(O)CCCC(NC(=O)CCN2C(=O)CC([*:2])C2=O)C(=O)OCCC(C)=CC(=O)N(O)CCCC(NC(=O)CCN2C(=O)CC([*:1])C2=O)C(=O)OCC1; X2 = CC(=O)NC1CCCN(O)C(=O)C=C(C)CCOC(=O)C(NC(=O)CCN2C(=O)CC([*:1])C2=O)CCCN(O)C(=O)C=C(C)CCOC(=O)C(NC(=O)CCN2C(=O)CC([*:2])C2=O)CCCN(O)C(=O)C=C(C)CCOC1=O; X3 = CC(=O)NC1CCCN(O)C(=O)C=C(C)CCOC(=O)C(NC(=O)CCN2C(=O)CC(*)C2=O)CCCN(O)C(=O)C=C(C)CCOC(=O)C(NC(C)=O)CCCN(O)C(=O)C=C(C)CCOC1=O; Nle = CCCC[C@H](N)C(=O)O; Mpa = O=C(O)CCS

A short description of one data set: in vivo. Set-up: species or system BALB/c nude mice. The conditions noted are these: female, BALB/c nude, mouse, iv, total radioactivity. The method, then: (§1) Ex vivo biodistribution studies were conducted using female 8−10 weeks old athymic BALB/c nude mice (Charles River Laboratories, Sulzfeld, Germany). Tumour xenografts were induced by subcutaneous injection of 2 × 10^6 A431-CCK2R cells (receptor positive) in the right and 2 × 10^6 A431-mock cells (receptor negative) in the left flank and tumours were allowed to grow until they had reached a volume of 0.3–0.6 cm^3.To evaluate the biodistribution profile double tumour xenografted BALB/c nude mice (n = 3) were intravenously injected with 1–2 MBq of ^68Ga-labelled peptides (0.1–0.2 nmol). The animals were sacrificed by cervical dislocation after 1 h and 4 h in case of the trimer. The collected samples were measured in the gamma counter and the results were calculated as percentage of injected activity per gram tissue (% IA/g).

For data set [1], the system named is A431-CCK2R/A431-mock tumour xenografted BALB/c nude mice. In words: in vivo. The conditions noted are these: mouse. The method, then:
as §1

The format of data set [2] is physicochemical. The conditions noted are these: for logD: pH 7.4. The method, then: To determine the distribution of the ^68Ga-radiolabelled conjugates between an organic and aqueous layer aliquots (50 μL) of the tracers (10 μM) were diluted in 450 μL PBS and after adding 500 μL octanol the mixture was vortexed at 1400 rpm (MS 3 basic vortexer, IKA, Staufen, Germany) for 15 min at RT followed by centrifugation for 2 min at 4500 rpm. Subsequently, aliquots (100 μL) of both layers were collected and measured in the gamma counter (Wizard2 3”, Perkin Elmer, Waltham, MA, USA) followed by logD calculation using Excel (n = 3, six replicates).

In a further data set the target is T1, CCK2 receptor (Homo sapiens, UniProt P32239).
T1 construct: expressed in transfected cells; host or cells: A431 human epidermoid carcinoma cells (A431-CCK2R), gift from Dr. L. Aloj
T1 sequence (P32239 1-447): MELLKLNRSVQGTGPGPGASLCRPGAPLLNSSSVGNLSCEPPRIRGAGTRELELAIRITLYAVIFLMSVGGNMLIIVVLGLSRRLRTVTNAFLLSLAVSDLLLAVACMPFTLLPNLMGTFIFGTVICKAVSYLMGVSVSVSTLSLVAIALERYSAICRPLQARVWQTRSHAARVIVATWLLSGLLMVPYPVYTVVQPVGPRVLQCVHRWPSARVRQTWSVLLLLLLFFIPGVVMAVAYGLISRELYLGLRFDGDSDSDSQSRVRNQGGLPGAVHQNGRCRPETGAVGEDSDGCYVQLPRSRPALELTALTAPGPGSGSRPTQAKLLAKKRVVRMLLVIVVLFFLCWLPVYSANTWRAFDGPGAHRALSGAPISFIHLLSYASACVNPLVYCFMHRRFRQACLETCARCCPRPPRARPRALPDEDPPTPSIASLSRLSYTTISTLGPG
In words: Receptor binding affinity studies (IC50) on whole A431-CCK2R cells vs 125I-[Leu15]-gastrin I. The conditions noted are these: natGa-labelled competitor, 125I-[Leu15]-Gastrin radioligand. The method, then:
Binding affinity studies on whole A431-CCK2R cells were performed as previously described. Briefly, 100 μL of cell suspension (5 × 10^6 cells/mL) was added to each well of a 96-well MultiScreen Filter Plate HTS (1 μm glass fiber filter, Merck Millipore, Darmstadt, Germany). Hereafter competitor solution was added with increasing concentrations [0.001−1.000 nM] and after 10 min at RT human [Leu^15]-gastrin I radiolabelled with iodine-125 as described in [16] was added (4.5 × 10^4 cpm) and the plate was maintained under shaking conditions (Compact shaker KS-15 control, 200/min) at ambient temperature. After 1 h each well was washed twice with 200 μL TRIS-buffered saline (pH 7.3), filters were collected and measured in the gamma counter followed by nonlinear curve fitting with Origin 6.1 software (Northampton, MA, USA) to calculate the IC50 values.

In general, tissue uptake refers to the share of the injected amount in each gram of the tissue. Usually logD stands for the decadic logarithm of the distribution of all forms, ionised or not, between an organic phase and buffer at a given pH. Read a high logD as a more lipophilic compound. As usually defined, the IC50 is the point on the concentration scale where inhibition reaches its midpoint. High values mean weaker potency in that assay, low ones greater potency in that assay.

In the case of `CCCC[C@H](NC(=O)[C@H](Cc1c[nH]c2ccccc12)NC(=O)CNC(=O)[C@H](Cc1ccc(O)cc1)NC(=O)[C@H](C)NC(=O)[C@@H](CCC(=O)O)NC(=O)CCSC1CC(=O)N(CCC(=O)NC2CCCN(O)C(=O)C=C(C)CCOC(=O)C(NC(C)=O)CCCN(O)C(=O)C=C(C)CCOC(=O)C(NC(C)=O)CCCN(O)C(=O)C=C(C)CCOC2=O)C1=O)C(=O)N[C@@H](CC(=O)O)C(=O)N[C@@H](Cc1ccccc1)C(N)=O` (stereo partly drawn) [Monomer-Nle] ([Mpa](X3)[dE]AYGW[Nle]DF-NH2), the tissue uptake at 1 h in the data set “in vivo” (A431-CCK2R tumour uptake) turned out to be 1.97 ± 0.25 %ID/g; in “in vivo” (A431-mock tumour uptake) it was 0.22 ± 0.07 %ID/g; in “in vivo” (Blood uptake), 0.25 ± 0.07 %ID/g; in the data set “in vivo” (Bone uptake), 0.3 ± 0.12 %ID/g; in “in vivo” (Heart uptake), 0.12 ± 0.03 %ID/g; in “in vivo” (Intestine uptake), 0.36 ± 0.12 %ID/g. Also, the tissue uptake at 1 h in “in vivo” (Kidneys uptake) was found to be 2.72 ± 0.29 %ID/g; in “in vivo” (Liver uptake), 0.17 ± 0.01 %ID/g; in “in vivo” (Lung uptake), 0.25 ± 0.03 %ID/g; in “in vivo” (Muscle uptake), 0.1 ± 0.02 %ID/g; in the data set “in vivo” (Pancreas uptake), 0.24 ± 0.02 %ID/g; in the data set “in vivo” (Spleen uptake), 0.1 ± 0.03 %ID/g. For the same molecule, the tissue uptake at 1 h in “in vivo” (Stomach uptake) stood at 0.66 ± 0.11 %ID/g. For the same molecule, the tissue to tissue ratio at 1 h in the data set “in vivo” (Ratio T/O tumour-to-Blood) amounted to 9 ± 3.6; in the data set “in vivo” (Ratio T/O tumour-to-Bone) it was 7.9 ± 3.1; in the data set “in vivo” (Ratio T/O tumour-to-Heart), 17.6 ± 5.2; in “in vivo” (Ratio T/O tumour-to-Intestine), 6.6 ± 3.6; in the data set “in vivo” (Ratio T/O tumour-to-Kidneys), 0.75 ± 0.18; in “in vivo” (Ratio T/O tumour-to-Liver) it was 11.5 ± 2. The tissue to tissue ratio at 1 h came to 8.1 ± 2.1 in the data set “in vivo” (Ratio T/O tumour-to-Lung); 22.1 ± 6 in the data set “in vivo” (Ratio T/O tumour-to-Muscle); 8.4 ± 1.6 in the data set “in vivo” (Ratio T/O tumour-to-Pancreas); 19.8 ± 4 in “in vivo” (Ratio T/O tumour-to-Spleen); 3.1 ± 0.9 in the data set “in vivo” (Ratio T/O tumour-to-Stomach). Besides, in data set [1], the “Ratio T/O tumour-to-A431-mock” value is given as 9.8 ± 2.2^b. The same molecule had a logD in data set [2] of -2.69 ± 0.14.
Turning to `CCCC[C@H](NC(=O)[C@H](Cc1c[nH]c2ccccc12)NC(=O)CNC(=O)[C@H](Cc1ccc(O)cc1)NC(=O)[C@H](C)NC(=O)[C@@H](CCC(=O)O)NC(=O)CCSC1CC(=O)N(CCC(=O)NC2CCCN(O)C(=O)C=C(C)CCOC(=O)C(NC(=O)CCN3C(=O)CC(SCCC(=O)N[C@H](CCC(=O)O)C(=O)N[C@@H](C)C(=O)N[C@@H](Cc4ccc(O)cc4)C(=O)NCC(=O)N[C@@H](Cc4c[nH]c5ccccc45)C(=O)N[C@@H](CCCC)C(=O)N[C@@H](CC(=O)O)C(=O)N[C@@H](Cc4ccccc4)C(N)=O)C3=O)CCCN(O)C(=O)C=C(C)CCOC(=O)C(NC(C)=O)CCCN(O)C(=O)C=C(C)CCOC2=O)C1=O)C(=O)N[C@@H](CC(=O)O)C(=O)N[C@@H](Cc1ccccc1)C(N)=O` (stereo partly drawn) [Dimer-Nle] (I: [Mpa][dE]AYGW[Nle]DF-NH2 / II: [Mpa][dE]AYGW[Nle]DF-NH2; linker I:1-II:1 via X2), the tissue uptake at 1 h was 5 ± 0.79 %ID/g in “in vivo” (A431-CCK2R tumour uptake); 0.65 ± 0.14 %ID/g in “in vivo” (A431-mock tumour uptake); 1.4 ± 0.48 %ID/g in “in vivo” (Blood uptake); 0.8 ± 0.37 %ID/g in the data set “in vivo” (Bone uptake); 0.62 ± 0.12 %ID/g in the data set “in vivo” (Heart uptake); 0.64 ± 0.12 %ID/g in “in vivo” (Intestine uptake). For the same molecule, the tissue uptake at 1 h turned out to be 12.8 ± 0.16 %ID/g in the data set “in vivo” (Kidneys uptake); 3.49 ± 0.94 %ID/g in “in vivo” (Liver uptake); 1.54 ± 0.33 %ID/g in the data set “in vivo” (Lung uptake); 0.36 ± 0.12 %ID/g in “in vivo” (Muscle uptake); 0.98 ± 0.28 %ID/g in the data set “in vivo” (Pancreas uptake); 0.95 ± 0.07 %ID/g in “in vivo” (Spleen uptake). The tissue uptake at 1 h in the data set “in vivo” (Stomach uptake) turned out to be 2.25 ± 0.17 %ID/g. Besides, the tissue to tissue ratio at 1 h in “in vivo” (Ratio T/O tumour-to-Blood) amounted to 4 ± 1.3; in “in vivo” (Ratio T/O tumour-to-Bone) it was 7.6 ± 3.2; in “in vivo” (Ratio T/O tumour-to-Heart), 8.2 ± 1.2; in “in vivo” (Ratio T/O tumour-to-Intestine), 8.1 ± 1.8; in “in vivo” (Ratio T/O tumour-to-Kidneys), 0.39 ± 0.06; in the data set “in vivo” (Ratio T/O tumour-to-Liver), 1.5 ± 0.4. Further, the tissue to tissue ratio at 1 h in the data set “in vivo” (Ratio T/O tumour-to-Lung) was determined as 3.3 ± 0.5; in “in vivo” (Ratio T/O tumour-to-Muscle) it was 15.8 ± 5.8; in “in vivo” (Ratio T/O tumour-to-Pancreas) it was 5.4 ± 1.3; in the data set “in vivo” (Ratio T/O tumour-to-Spleen), 5.2 ± 0.5; in “in vivo” (Ratio T/O tumour-to-Stomach), 2.2 ± 0.3. The “Ratio T/O tumour-to-A431-mock” value in data set [1] is 8.0 ± 1.8^c. The molecule further displayed a log distribution coefficient (logD) in data set [2] of -2.05 ± 0.19.
For the molecule `CCCC[C@H](NC(=O)[C@H](Cc1c[nH]c2ccccc12)NC(=O)CNC(=O)[C@H](Cc1ccc(O)cc1)NC(=O)[C@H](C)NC(=O)[C@@H](CCC(=O)O)NC(=O)CCSC1CC(=O)N(CCC(=O)NC2CCCN(O)C(=O)C=C(C)CCOC(=O)C(NC(=O)CCN3C(=O)CC(SCCC(=O)N[C@H](CCC(=O)O)C(=O)N[C@@H](C)C(=O)N[C@@H](Cc4ccc(O)cc4)C(=O)NCC(=O)N[C@@H](Cc4c[nH]c5ccccc45)C(=O)N[C@@H](CCCC)C(=O)N[C@@H](CC(=O)O)C(=O)N[C@@H](Cc4ccccc4)C(N)=O)C3=O)CCCN(O)C(=O)C=C(C)CCOC(=O)C(NC(=O)CCN3C(=O)CC(SCCC(=O)N[C@H](CCC(=O)O)C(=O)N[C@@H](C)C(=O)N[C@@H](Cc4ccc(O)cc4)C(=O)NCC(=O)N[C@@H](Cc4c[nH]c5ccccc45)C(=O)N[C@@H](CCCC)C(=O)N[C@@H](CC(=O)O)C(=O)N[C@@H](Cc4ccccc4)C(N)=O)C3=O)CCCN(O)C(=O)C=C(C)CCOC2=O)C1=O)C(=O)N[C@@H](CC(=O)O)C(=O)N[C@@H](Cc1ccccc1)C(N)=O` (stereo partly drawn) [Trimer-Nle] (I: [Mpa][dE]AYGW[Nle]DF-NH2 / II: [Mpa][dE]AYGW[Nle]DF-NH2 / III: [Mpa][dE]AYGW[Nle]DF-NH2; linker I:1-II:1-III:1 via X1), the IC50 at CCK2 receptor is 0.0209 ± 0.00113 µM. For the same molecule, the “Distribution coefficient logD (pH 7.4)” value in data set [2] is reported as -1.80 ± 0.16.
